Assay results published in patent US20060024786A1, “WASP and N-WASP constructs and methods of expressing such constructs” (Cytokinetics, Inc., priority 2004, published 2006).

Key:
Test in all cases: cell-based or functional assay
[1] = target: full length human N-WASP (Myc-N-WASP-TAP) (human)
[2] = target: full length human WASP (Myc-WASP-TAP) (human)
Arp2/3 complex (human) = Arp2/3 complex (human) (UniProt P61158)

| Barbed ends % of max. (after subtracting baseline) [1] [%] | Barbed ends, nM (pyrene-actin polymerization assay) [1] [nM] | EC50, nM (activation of actin polymerization) [1] [nM] | Barbed ends % of max. (after subtracting baseline) [2] [%] | Barbed ends, nM (pyrene-actin polymerization assay) [2] [nM] | EC50, nM (activation of actin polymerization) [2] [nM] | activity relative to 105 WASP (actin polymerization, EC50 comparison) (Arp2/3 complex (human)) [times] | concentration giving maximal barbed ends (500 nM Cdc42, 2.5 nM Arp2/3, 3.5 uM actin) (Arp2/3 complex (human)) [nM] | potency relative to the VCA/WA domain (actin polymerization, EC50 comparison) (Arp2/3 complex (human)) [times] | Substance |
| --- | --- | --- | --- | --- | --- | --- | --- | --- | --- |
| 78 | 3.5 | 7 | 50 | 2.6 | 12 | – | – | – | GST_NCK2 |
| – | – | 287 | – | – | 16 | – | – | – | N_GST_tev_Cdc42 GTP (bacterial GST tagged Cdc42 protein) (enzyme) |
| – | – | – | – | – | – | 20 | 3 | > 70 | full length human WASP (Myc-WASP-TAP) |
